Read-outs that look alike come from different tables or passages of the source.

Experiment in all cases: EMSA
In general terms: Mobility shift assays separate free from complexed probe on a gel.

The target in data set [1] is T1, Dmp1 (Dmtf1) (UniProt Q8CE22 1-761).
T1 sequence: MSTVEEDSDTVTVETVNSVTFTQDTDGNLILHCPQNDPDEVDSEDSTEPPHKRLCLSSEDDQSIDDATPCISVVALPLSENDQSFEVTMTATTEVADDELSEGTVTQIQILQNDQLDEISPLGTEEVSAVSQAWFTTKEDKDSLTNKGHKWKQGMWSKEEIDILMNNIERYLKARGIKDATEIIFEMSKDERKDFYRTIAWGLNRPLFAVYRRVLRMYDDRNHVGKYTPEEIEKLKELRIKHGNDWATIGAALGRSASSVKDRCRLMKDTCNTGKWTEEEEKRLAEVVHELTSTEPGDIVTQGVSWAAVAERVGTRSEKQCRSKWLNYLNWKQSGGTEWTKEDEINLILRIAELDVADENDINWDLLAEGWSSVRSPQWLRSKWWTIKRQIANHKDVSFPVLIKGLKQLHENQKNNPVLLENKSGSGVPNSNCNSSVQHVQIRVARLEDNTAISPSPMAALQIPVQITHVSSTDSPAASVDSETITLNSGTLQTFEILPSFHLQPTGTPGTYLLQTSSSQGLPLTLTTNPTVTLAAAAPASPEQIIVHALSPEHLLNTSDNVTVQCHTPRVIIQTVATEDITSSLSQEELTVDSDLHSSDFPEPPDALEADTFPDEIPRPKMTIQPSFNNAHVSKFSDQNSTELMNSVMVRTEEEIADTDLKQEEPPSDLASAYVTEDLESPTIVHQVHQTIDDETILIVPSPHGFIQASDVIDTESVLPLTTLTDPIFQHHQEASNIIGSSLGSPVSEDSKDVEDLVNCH

Data set [2] concerns the target T1, Dmp1 (Dmtf1). This is another data set of the same source.
Data set [3] has as its target T1, Dmp1 (Dmtf1). This is another data set of the same source.
For data set [4], the target named is T1, Dmp1 (Dmtf1). This is another data set of the same source.
The target in data set [5] is T1, Dmp1 (Dmtf1). This is another data set of the same source.

B1: Egr1#1 (dsDNA)
DNA 1: TTTAAAACGAAGGTGGAGGCGGATGGAGAGAGAGAGAGAGAG
DNA 2: CTCTCTCTCTCTCTCTCCATCCGCCTCCACCTTCGTTTTAAA
Turning to B1, the binding result in the data set with Dmp1 (Dmtf1) [1] is given as “binds”.

B2: JunB#2 (control) (dsDNA)
DNA 1: TTTGAGCCCTGGGAGCCATCCGAGCGGCTTTCAACAGACC
DNA 2: GGTCTGTTGAAAGCCGCTCGGATGGCTCCCAGGGCTCAAA
For the molecule B2, the binding result with Dmp1 (Dmtf1) [2] is reported as “no binding”.

B3: Tsp-1#1 (dsDNA)
DNA 1: TTTCAGAGCCTGCGTATGTTATAACG
DNA 2: CGTTATAACATACGCAGGCTCTGAAA
Consider B3, for which the binding result in the data set with Dmp1 (Dmtf1) [3] was “binds”.

B4: JunB#1 (dsDNA)
DNA 1: TTTTTTTCTTCCAAGCTGGGCGGATGGAGGGAGAAGATTG
DNA 2: CAATCTTCTCCCTCCATCCGCCCAGCTTGGAAGAAAAAAA
Consider B4, for which, in the data set with Dmp1 (Dmtf1) [2], the binding result is given as “binds”.

B5: Areg#2 (dsDNA)
DNA 1: TTTGCTCAGGTGAGCATCCGCCACCTCTCAGG
DNA 2: CCTGAGAGGTGGCGGATGCTCACCTGAGCAAA
On to B5, for which the binding result with Dmp1 (Dmtf1) [4] is on record as “binds”.

B6: Areg#1 (dsDNA)
DNA 1: TTTACCCCAGAACGGGATGGGGAGCAT
DNA 2: ATGCTCCCCATCCCGTTCTGGGGTAAA
B6: the binding result with Dmp1 (Dmtf1) [5] is given as “binds”.

Source of the values: publication PMC2836939.
